Legend:
[1] = biological target: monoclonal antibody raised against the C4A3-HNE target sequence; assay: competitive ELISA: standard peptide against the biotinylated peptide on a streptavidin plate, HRP-conjugated antibody; mean of the standard curves
[2] = biological target: monoclonal antibody raised against the C4A4-HNE target sequence; assay: as above
[3] = biological target: synthetic peptide mimicking the type IV collagen alpha-4 chain, undigested
[4] = biological target: synthetic peptide mimicking the type IV collagen alpha-3 chain, undigested

B1: C4A3-HNE standard/selection peptide … (peptide)
peptide: EGTRPGPPGP
IC50 [1]: 0.0731 µg/mL

B2: C4A4-HNE standard/selection peptide … (peptide)
peptide: TYPGRHGPPG
IC50 [2]: 0.0336 µg/mL

B3: active neutrophil elastase purified from human cells (protein)
chain: IVGGRRARPHAWPFMVSLQLRGGHFCGATLIAPNFVMSAAHCVANVNVRAVRVVLGAHNLSRREPTRQVFAVQRIFENGYDPVNLLNDIVILQLNGSATINANVQVAQLPAQGRRLGNGVQCLAMGWGLLGRNRGIASVLQELNVTVVTSLCRRSNVCTLVRGRQAGVCFGDSGSPLVCNGLIHGIASFVRGGCASGLYPDAFAPVAQFVNWIDSIIQ
release of the neo-epitope after 4 hours of incubation with active HNE, detected by the C4A4-HNE ELISA [3]: HNE was able to generate both neo-epitopes | release of the neo-epitope after 4 hours of incubation with active HNE, detected by the C4A3-HNE ELISA [4]: HNE was able to generate both neo-epitopes

From patent US20260219282A1
